Positions count from the first letter of the chain named. Where two headings read alike, the source gives them in different places.
B1: Lys234Asn: SULT1A3 polypeptide having an asparagine at amino acid residue 234 (allozyme encoded by thymine at nucleotide 702) (protein, listed as Homo sapiens)
chain: MELIQDTSRPPLEYVKGVPLIKYFAEALGPLQSFQARPDDLLINTYPKSGTTWVSQILDMIYQGGDLEKCNRAPIYVRVPFLEVNDPGEPSGLETLKDTPPPRLIKSHLPLALLPQTLLDQKVKVVYVARNPKDVAVSYYHFHRMEKAHPEPGTWDSFLEKFMAGEVSYGSWYQHVQEWWELSRTHPVLYLFYEDMKENPKREIQKILEFVGRSLPEETMDFMVQHTSFKEMKNNPMTNYTTVPQELMDHSISPFMRKGMAGDWKTTFTVAQNERFDADYAEKMAGCSLSFRSEL
B2: WT: reference SULT1A3 polypeptide (SEQ ID NO:4) that contains a lysine at amino acid residue 234 (protein, listed as Homo sapiens)
chain: B1 chain with N234K

What was measured:
[1] = target: T1, SULT1A3 (Homo sapiens, UniProt P0DMM9); assay: Substrate kinetic studies, apparent Km for dopamine and PAPS; format: biochemical; conditions: recombinant enzyme
T1 construct: made in house; host or cells: COS-1 cells transfected with pCR3.1 construct; high speed supernatant cytosol, unpurified
T1 sequence (P0DMM9 whole entry): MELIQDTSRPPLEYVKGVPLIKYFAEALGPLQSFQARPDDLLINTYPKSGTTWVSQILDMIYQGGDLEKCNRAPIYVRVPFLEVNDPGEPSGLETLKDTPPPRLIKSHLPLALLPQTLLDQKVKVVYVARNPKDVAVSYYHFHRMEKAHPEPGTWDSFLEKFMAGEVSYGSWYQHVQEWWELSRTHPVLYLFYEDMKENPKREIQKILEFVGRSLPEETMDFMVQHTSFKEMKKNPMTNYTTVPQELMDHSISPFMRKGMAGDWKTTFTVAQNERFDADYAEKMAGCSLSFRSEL
Procedure: SULT1A3 enzyme activity was measured with an assay that involves sulfate conjugation of a sulfate acceptor substrate, dopamine (40 μM), in the presence of the sulfate donor 3′-phosphoadenosine-5′-phosphosulfate (PAPS). […] Cytosol from COS-1 cells transfected with empty pCR3.1 were used to correct for endogenous SULT activity. Because SULTs display profound substrate inhibition, a range of dopamine concentrations were tested to ensure that the assays were performed at a dopamine concentration that yielded maximal activity for the Lys234Asn allozyme. Enzyme activity was expressed as nanomoles (nmoles) of sulfate conjugated product formed per hour of incubation. Apparent Km values for PAPS were determined in the presence of dopamine, with PAPS concentrations that varied from 0.035 μM to 0.5 μM and dopamine concentrations that varied from 2.5 μM to 80 μM.
Data Analysis: Apparent Km values were calculated by using the method of Wilkinson with a computer program written by Cleland. Wilkinson, Biochem. J., 80:324-332 (1961); and Cleland, Nature, 198:463-365 (1963). Statistical comparisons of data were performed by ANOVA with the StatView program, version 4.5 (Abacus Concepts, Inc., Berkeley, Calif.). Linkage analysis was performed after all DNA samples had been genotyped at each of the 6 polymorphic sites observed. D′ values, a quantitative method for reporting linkage data that is independent of allele frequency (Hartl and Clark, Principles of Population Genetics, 3rd ed. (1997) Sinauer Associates, Inc., (Sunderland, Mass.), pp. 96-106; and Hedrick, Genetics of Populations, 2nd ed. (2000) Jones and Bartlett (Sudbury, Mass.), pp. 396-405), then were calculated. The genotype data also were used to assign inferred haplotypes using a program based on the E-M algorithm (Long et al. (1995) Am. J. Hum. Genet. 56:799-810; and Excoffier and Slatkin (1995) Mol. Biol. Evol. 12:921-927). Unambiguous haplotype assignment also was possible on the basis of genotype for samples that contained no more than one heterozygous polymorphism.
Alterations in amino acid sequence can alter enzyme substrate affinity and/or catalytic efficiency. Substrate kinetic studies were conducted to determine whether the Lys234Asn allozyme differed from the WT SULT1A3 protein in these aspects. A series of dopamine and PAPS concentrations were used to estimate apparent Km values for recombinant wild type SULT1A3 and for the Lys234Asn variant allozyme.

[2] = target: T2, SULT1A3 (Homo sapiens, UniProt P0DMM9, K234N); assay: SULT1A3 enzyme activity assay (sulfate conjugation of dopamine with PAPS) in COS-1 cytosol preparations; format: biochemical; conditions: recombinant allozyme expressed in COS-1 cells, dopamine 40 μM
T2 construct: made in house; host or cells: COS-1 cells transfected with pCR3.1 construct; high speed supernatant cytosol, unpurified
Description: COS-1 cell expression: Two different SULT1A3 expression constructs were made using the pCR3.1 expression vector. One of the constructs was designed to express the SULT1A3 Lys234Asn allozyme, while the remaining construct was designed to express a wild type SULT1A3 polypeptide. All SULT1A3 cDNA sequences containing SULT1A3 nucleotide sequence variants used to create the expression constructs were created by site directed mutagenesis using the method described by Ho et al. (1989) Gene 77:51-59. Each SULT1A3 cDNA was amplified by PCR and subcloned into the eukaryotic expression vector pCR3.1 (Promega, Madison, Wis.). […]
Enzyme Assays: β-galactosidase activity in each of the COS-1 HSS preparations was measured with the β-galactosidase Enzyme Assay System (Promega, Madison, Wis.). […] The protein concentration of each recombinant protein preparation was determined by the dye-binding method of Bradford with bovine serum albumin (BSA) as a standard.
SULT1A3 enzyme activity was measured with an assay that involves sulfate conjugation of a sulfate acceptor substrate, dopamine (40 μM), in the presence of the sulfate donor 3′-phosphoadenosine-5′-phosphosulfate (PAPS). […] Enzyme activity was expressed as nanomoles (nmoles) of sulfate conjugated product formed per hour of incubation. […]

[3] = PAPS 0.035 μM to 0.5 μM in the presence of dopamine, read-out: apparent Km for PAPS
[4] = dopamine 2.5 μM to 80 μM, read-out: apparent Km for dopamine

Molecule	Km [1, 3] [µM]	Km [1, 4] [µM]	enzyme activity as percentage of WT activity [2] [%]	reduction in enzyme activity ([2]; relative to WT SULT1A3) [%]
B1	0.107	9.8	27	73
B2	0.112	10.4	–	–
